Results taken from patent US10308692B2, “Variants of GAL2 transporter and their uses” (Johann Wolfgang Goethe-Universität Frankfurt, priority 2014, dated 2019).

How the values were obtained:
EBY.VW4000 = assay: Xylose uptake assay with radioactively labelled xylose; assay type: cell-based, Saccharomyces cerevisiae; settings: for Vmax: xylose uptake, Michaelis-Menten fit (GraphPad Prism), three replicates, figures give velocity in nmol xylose per minute per milligram cell dry mass; for xylose uptake rate compared to wild type: FIGS. 7 and 8
Source text: FIG. 7: Xylose uptake assay of Gal2_N376Y, N376Y+M435I and Gal2 wild type in EBY.VW4000 (three independent replicates). The uptake velocity is shown in nmol xylose per minute per milligram cell dry mass.
FIG. 8: Xylose uptake assay of Gal2_N376F, N376F+M435I and Gal2 wild type in EBY.VW4000 (three independent replicates). The uptake velocity is shown in nmol xylose per minute per milligram cell dray mass.
Sugar uptake assays were done as described by Bisson et al. (Bisson and Fraenkel, 1983) with modifications according to Walsh et al. (Walsh et al., 1994).
Transformants of strain EBY.VW4000 were grown in selective YEPE to an OD of 1.1-1.6, harvested by centrifugation and washed twice in ice-cold uptake-buffer (RT, 3 min, 3000×g). Cells were kept on ice from here on. The cell pellet was resuspended in ice-cold uptake-buffer to a concentration of 60 mgww/ml and aliquoted to 110 μl. One cell suspension aliquot and one sugar solution were incubated in a water bath at 30° C. for 4-5 min. 100 μl of the cell suspension were pipetted to the sugar solution (50 μl), mixed briefly by pipetting and incubated for 5 (D-[U-^14C]-glucose) or 20 sec (D-[1-^14C]-xylose). The uptake reaction was stopped by transferring 100 μl of the mixture into 10 ml ice-cold quenching-buffer, which was immediately filtered through a Durapore membrane filter (0.22 μm pore size, Millipore). The filter was washed twice with 10 ml ice-cold quenching-buffer, transferred to a scintillation vial containing 4 ml scintillation cocktail (Rotiszint eco plus, Roth) and shaken thoroughly. Additionally to this filter sample (cpmfilter), 10 μl of each reaction were transferred directly to a scintillation vial with 4 ml scintillation cocktail for determination of the total counts in the reaction (cpmtotal). To determine a value for sugar that is bound unspecifically to the cell surface or the filter (cpmblank) a few samples of 33,3 μl sugar solution and 66,6 μl cell suspension were mixed in 10 ml icecold quenching buffer and treated as described above. Radioactivity of all vials was analysed in an Wallac 1409 liquid scintillation counter.
Stocksolutions of 2M, 500 mM or 20 mM glucose or xylose (in H2O) were used to prepare the sugar solutions for the assays (threefold of the desired concentration in the uptake reaction (S, substrate concentration), 50 μl aliquots). Uptake was measured at sugar concentrations 0.2, 1, 5, 25 and 100 mM for glucose and 1, 5, 25, 66, 100, 200 and 500 mM for xylose. Inhibition of xylose uptake by glucose was measured at 25, 66 and 100 mM xylose with additional 25 and 100 mM unlabelled glucose. Sugar solutions contained 0.135 to 0.608 μCi of D-[U-^14C]-glucose (290-300 mCi/mmol) or D-[1-^14C]-xylose (55 mCi/mmol) (American Radiolabeled Chemicals Inc., St. Louis, Mo., USA).
The amount of sugar (Asugar in nmol) taken up during the incubation time (t, in seconds) at a certain sugar concentration (S, in mM): Asugar=((cpmsample−cpmblank)/(cpmtotal·10))·S·100 μl
Transport velocity (in nmol·min^−1·mgww^−1) calculated per milligrams of cell (m, in mgww): V=(Asugar·60 s)/(t·m)
Calculation of Km (Michaelis constant), Vmax (maximal initial uptake velocity) and Ki (inhibitor constant for competitive inhibition) was done by nonlinear regression analysis and global curve fitting in Prism 5 (GraphPad Software, Inc.) with values of three independent measurements.
Xylose uptake of Gal2_N376F, N376F+M435I, N376Y und N376Y+M435I was characterized with a sugar uptake assay. The relevant plasmids were transformed in strain EBY.VW4000. Cells were cultivated in SCM-ura until they reached the exponential growth phase (OD600˜0.6). Then cells were harvested, concentrated to the same OD600 (OD600 35-40), separated into different aliquots and stored on ice.
Three uptake assays (in tripicates) were performed with different concentrations of radioactively labelled xylose. Data were collected and fittet with GraphPad Prism according to Michaelis Menten (FIGS. 7 and 8).

AFY10 = assay: Serial dilution drop test on xylose and xylose-glucose media; assay type: cell-based, Saccharomyces cerevisiae; settings: 0.2% (2 g/l) xylose
Experimental: The transformants were cultivated in 5 ml SCE-ura-leu with 2% ethanol at 30°, washed with water and adjusted to an OD600 of 1. Thereof it followed a serial dilution. 5 μl were dropped onto the respective media and it was incubated for five days at 30°. As a control for the dilution SCE-ura-leu with 2% ethanol was taken. The cells of the mutated transporters were dropped onto SCX-ura-leu with 0.2% and 2% D-xylose, as well as SC-ura-leu with 1% D-xylose with 4% D-glucose and SC-ura-leu with 0.2% D-xylose and 2% D-glucose to test their functionality. Furthermore the wild type and Gal2_ep3.1 were used for comparison.
FIG. 5: Drop test of Gal2_M435I in AFY10 after five days at 30°. Several dilutions were dropped from left to right (undiluted, 1:10, 1:100, 1:1000).
FIG. 6: Drop test of Gal2_N376F, N376F+M435I and N376Y+M435I in AFY10 after five days at 30°. Several dilutions were dropped from left to right (undiluted, 1:10, 1:100, 1:1000). But on 20 g/l xylose the order was different (undiluted, 1:100, 1:1000, 1:10).
For easy comparison of growth of different S. cerevisiae strains under various growth conditions a serial dilution spot assay was performed. Cells were grown in liquid culture to exponential phase in appropriate medium, collected by centrifugation (2000×g, 2 min), washed twice with sterile water and then resuspended to an OD600 of 1.0 in selective medium without carbon source. From this cell suspension a ten-fold serial dilution was prepared in selective medium (four dilution steps). 6 μl of each cell suspension were spotted on plates of the media to be examined and allowed to dry. Plates were incubated at 30° C.
To characterize the different constructs which all were verified by sequencing they were transformed together with vector YEp181_pHXT7-optXI_Clos into competent AFY10 cells and drop tests were performed.

| Molecule | Vmax (EBY.VW4000) | growth on low xylose (AFY10) | xylose uptake rate compared to wild type (EBY.VW4000) |
| --- | --- | --- | --- |
| N376F: Gal2 variant with amino acid substitution N376F (protein, UniProt P13181 1-574, looked up, variant N376F) Galactose transporter: MAVEENNMPVVSQQPQAGEDVISSLSKDSHLSAQSQKYSNDELKAGESGSEGSQSVPIEIPKKPMSEYVTVSLLCLCVAFGGFMFGWDTGTISGFVVQTDFLRRFGMKHKDGTHYLSNVRTGLIVAIFNIGCAFGGIILSKGGDMYGRKKGLSIVVSVYIVGIIIQIASINKWYQYFIGRIISGLGVGGIAVLCPMLISEIAPKHLRGTLVSCYQLMITAGIFLGYCTNYGTKSYSNSVQWRVPLGLCFAWSLFMIGALTLVPESPRYLCEVNKVEDAKRSIAKSNKVSPEDPAVQAELDLIMAGIEAEKLAGNASWGELFSTKTKVFQRLLMGVFVQMFQQLTGNNYFFYYGTVIFKSVGLDDSFETSIVIGVVFFASTFFSLWTVENLGHRKCLLLGAATMMACMVIYASVGVTRLYPHGKSQPSSKGAGNCMIVFTCFYIFCYATTWAPVAWVITAESFPLRVKSKCMALASASNWVWGFLIAFFTPFITSAINFYYGYVFMGCLVAMFFYVFFFVPETKGLSLEEIQELWEEGVLPWKSEGWIPSSRRGNNYDLEDLQHDDKPWYKAMLE | 25.86 | better than that of Gal2_N376Y+M435I | – |
| N376F + M435I: Gal2 variant with amino acid substitutions N376F and M435I (protein, UniProt P13181 1-574, looked up, variant N376F M435I) Galactose transporter: MAVEENNMPVVSQQPQAGEDVISSLSKDSHLSAQSQKYSNDELKAGESGSEGSQSVPIEIPKKPMSEYVTVSLLCLCVAFGGFMFGWDTGTISGFVVQTDFLRRFGMKHKDGTHYLSNVRTGLIVAIFNIGCAFGGIILSKGGDMYGRKKGLSIVVSVYIVGIIIQIASINKWYQYFIGRIISGLGVGGIAVLCPMLISEIAPKHLRGTLVSCYQLMITAGIFLGYCTNYGTKSYSNSVQWRVPLGLCFAWSLFMIGALTLVPESPRYLCEVNKVEDAKRSIAKSNKVSPEDPAVQAELDLIMAGIEAEKLAGNASWGELFSTKTKVFQRLLMGVFVQMFQQLTGNNYFFYYGTVIFKSVGLDDSFETSIVIGVVFFASTFFSLWTVENLGHRKCLLLGAATMMACMVIYASVGVTRLYPHGKSQPSSKGAGNCIIVFTCFYIFCYATTWAPVAWVITAESFPLRVKSKCMALASASNWVWGFLIAFFTPFITSAINFYYGYVFMGCLVAMFFYVFFFVPETKGLSLEEIQELWEEGVLPWKSEGWIPSSRRGNNYDLEDLQHDDKPWYKAMLE | 13.81 | grow the best | reduced uptake rate |
| N376Y: Gal2 variant with amino acid substitution N376Y (protein, UniProt P13181 1-574, looked up, variant N376Y) Galactose transporter: MAVEENNMPVVSQQPQAGEDVISSLSKDSHLSAQSQKYSNDELKAGESGSEGSQSVPIEIPKKPMSEYVTVSLLCLCVAFGGFMFGWDTGTISGFVVQTDFLRRFGMKHKDGTHYLSNVRTGLIVAIFNIGCAFGGIILSKGGDMYGRKKGLSIVVSVYIVGIIIQIASINKWYQYFIGRIISGLGVGGIAVLCPMLISEIAPKHLRGTLVSCYQLMITAGIFLGYCTNYGTKSYSNSVQWRVPLGLCFAWSLFMIGALTLVPESPRYLCEVNKVEDAKRSIAKSNKVSPEDPAVQAELDLIMAGIEAEKLAGNASWGELFSTKTKVFQRLLMGVFVQMFQQLTGNNYFFYYGTVIFKSVGLDDSFETSIVIGVVYFASTFFSLWTVENLGHRKCLLLGAATMMACMVIYASVGVTRLYPHGKSQPSSKGAGNCMIVFTCFYIFCYATTWAPVAWVITAESFPLRVKSKCMALASASNWVWGFLIAFFTPFITSAINFYYGYVFMGCLVAMFFYVFFFVPETKGLSLEEIQELWEEGVLPWKSEGWIPSSRRGNNYDLEDLQHDDKPWYKAMLE | 11.92 | – | strong reduction |
